Values quoted from earlier work in PMC10947368.
pKd: −log10 of the molar value.

What was measured:
IL-2Rα (Homo sapiens) = IL-2Rα (Homo sapiens) (UniProt P01589)
[1] = biological target: IL-2Rβ/γc heterodimeric receptor (Homo sapiens) (UniProt P14784)
UniProt P14784, sequence (P14784 27-240, chain 1 of 2): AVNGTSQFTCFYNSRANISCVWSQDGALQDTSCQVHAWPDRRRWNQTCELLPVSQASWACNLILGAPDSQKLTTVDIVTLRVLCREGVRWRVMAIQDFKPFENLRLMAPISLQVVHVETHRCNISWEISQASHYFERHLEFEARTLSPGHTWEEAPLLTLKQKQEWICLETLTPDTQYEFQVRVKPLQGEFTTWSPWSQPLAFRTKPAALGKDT
UniProt P14784, sequence (P31785 23-262, chain 2 of 2, further chain): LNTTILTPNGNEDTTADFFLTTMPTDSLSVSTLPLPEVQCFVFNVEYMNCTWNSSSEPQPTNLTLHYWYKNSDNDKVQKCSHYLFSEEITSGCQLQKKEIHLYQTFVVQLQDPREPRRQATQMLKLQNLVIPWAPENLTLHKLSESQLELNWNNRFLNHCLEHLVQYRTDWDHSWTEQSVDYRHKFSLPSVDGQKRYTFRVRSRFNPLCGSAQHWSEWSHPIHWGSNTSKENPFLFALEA

UniProt P01589, sequence (P01589 22-240): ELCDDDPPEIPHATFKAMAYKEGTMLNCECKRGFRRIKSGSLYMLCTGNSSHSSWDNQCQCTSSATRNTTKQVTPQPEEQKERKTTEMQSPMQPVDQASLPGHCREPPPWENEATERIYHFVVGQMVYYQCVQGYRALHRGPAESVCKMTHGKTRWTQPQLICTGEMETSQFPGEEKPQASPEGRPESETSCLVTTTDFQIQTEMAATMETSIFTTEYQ

Interleukin-2 (from UniProt P60568)
pKd (IL-2Rα (Homo sapiens)): 8.00 | pKd [1]: 9.00
